Experimental data reported in paper PMC3515076.

Target: T1, RIG-I (ΔCARDs 1-238) (human, UniProt O95786 239-925, del1-238)
T1 sequence: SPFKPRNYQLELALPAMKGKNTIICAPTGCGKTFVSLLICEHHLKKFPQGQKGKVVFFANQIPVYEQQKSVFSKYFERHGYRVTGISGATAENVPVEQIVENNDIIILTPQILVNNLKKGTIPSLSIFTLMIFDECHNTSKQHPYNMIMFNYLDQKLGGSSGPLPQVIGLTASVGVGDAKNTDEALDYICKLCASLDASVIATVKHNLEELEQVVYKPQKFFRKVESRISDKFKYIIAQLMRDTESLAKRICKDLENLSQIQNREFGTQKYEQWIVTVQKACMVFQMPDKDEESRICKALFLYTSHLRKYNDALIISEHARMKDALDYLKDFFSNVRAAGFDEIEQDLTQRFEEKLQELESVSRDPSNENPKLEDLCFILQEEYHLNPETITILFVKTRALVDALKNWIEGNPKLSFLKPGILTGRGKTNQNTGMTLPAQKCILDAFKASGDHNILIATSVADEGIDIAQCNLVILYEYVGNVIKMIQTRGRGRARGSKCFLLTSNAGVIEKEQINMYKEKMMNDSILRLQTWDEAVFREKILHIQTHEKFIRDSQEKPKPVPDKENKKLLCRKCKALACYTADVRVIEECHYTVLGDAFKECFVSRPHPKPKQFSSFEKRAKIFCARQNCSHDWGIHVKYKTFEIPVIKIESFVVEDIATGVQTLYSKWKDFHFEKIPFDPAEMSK
Assay: X-ray crystallography

Binder: GGCGCGGCUUCGGCCGCGCC (structured_RNA, 5' triphosphate) [5'ppp8L]
- binding result: binds
